From patent US20160280792A1 (Kyowa Kirin, published 2016) come the findings set out here.

Changes are numbered by the printed parent chain.

As a reminder, the Kd is the free concentration of one partner at which half of the binding sites on the other are occupied at equilibrium, for simple one-to-one binding.

Test [1] deals with T1, soluble form of human IL-3Rα protein (extracellular region with C-terminal FLAG tag) (human, UniProt P26951 19-305).
T1 construct: Made in CHOras1 cells, purified on anti-FLAG gel; also called soluble form of IL-3Rα protein; soluble form of human IL-3Rα extracellular region
T1 sequence: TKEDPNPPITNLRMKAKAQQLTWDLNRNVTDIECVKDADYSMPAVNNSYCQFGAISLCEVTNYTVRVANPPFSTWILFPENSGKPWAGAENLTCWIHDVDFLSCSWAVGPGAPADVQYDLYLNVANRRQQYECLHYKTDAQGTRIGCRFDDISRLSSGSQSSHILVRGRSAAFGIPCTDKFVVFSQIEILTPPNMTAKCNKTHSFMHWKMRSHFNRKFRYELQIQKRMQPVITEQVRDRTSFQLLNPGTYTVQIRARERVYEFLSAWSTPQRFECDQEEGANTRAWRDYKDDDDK
Description: SPR (Biacore 2000): antibody captured on anti-human antibody CM5 chip, soluble IL-3Rα as analyte, 1:1 Langmuir fit. How it is done: Specifically, CM5 (research grade) was used for a sensor tip (each GE). Firstly, the CM5 tip was activated by applying an equivalent mixture of 400 mM EDC (N-ethyl-N′-(3-dimethylaminopropyl)carbodiimidehydrochloride) and 100 mM NHS (N-hydroxysuccinimide) to the CM5 tip. Next, an antibody to the human antibody attached to the Human Antibody Capture Kit (GE) (hereinafter, referred to as anti-human antibody antibody) was diluted with the solution attached to the kit and applied thereto, thereby immobilizing the required amount of the anti-human antibody antibody to the CM5 tip. Regarding the mouse antibody to be used as a control, an antibody to the mouse antibody attached to the Mouse Antibody Capture Kit (GE) (hereinafter, referred to as anti-mouse antibody antibody) was diluted with the solution attached to the kit and applied thereto, thereby immobilizing a necessary amount thereof to the CM5 tip. Next, the surface of the activated tip was blocked and inactivated by applying 1 M of ethanolamine dihydrochloride thereto. By the above steps until this, preparation of a CM5 sensor tip which can measure the dissociation constant KD was completed.
Next, each of anti-IL-3Rα antibodies, was diluted to give a concentration of 5 μg/ml with HBS-FP buffer (GE) one kind per one flow cell and applied, thereby allowing it to bind to the immobilized anti-human antibody antibody or anti-mouse antibody antibody. Next, the soluble form of IL-3Rα protein was applied thereto. In order to dissociate the bound anti-IL-3Rα antibody and soluble form of IL-3Rα protein, 3 M MgCl₂ attached to Human Antibody Capture Kit or pH 1.7 of Glycine-HCl attached to Mouse Antibody Capture Kit was applied in the amount attached to the kit. The steps until this were regarded as one step. By repeating the same steps using two or more concentrations of the soluble form of IL-3Rα protein, data for calculating association and dissociation constants (sensorgram) were obtained.
In the analysis, Biaevaluation software (GE) was used and Biaevaluation Software Handbook was referred. Specifically, by carrying out simultaneous analysis of kinetics analysis, employing basically the 1:1 Langmuir binding reaction model and fitting, association rate constant (Ka) and dissociation rate constant (Kd) were calculated, and the value of dissociation constant KD was calculated by the calculation of Kd/Ka.
In general terms: Surface plasmon resonance follows binding to a sensor surface in real time, without labels.

For test [2], the target named is T2, IL-3Rα/GM-CSFRα chimeric protein, B domain of IL-3Rα replaced by that of GM-CSFRα, on HEK293T cells (human, UniProt P15509 115-213).
T2 construct: domain: B domain; The KpnI sites (GGTACC) at both junctions each encode an extra Gly-Thr; also called B domain substitution
T2 sequence: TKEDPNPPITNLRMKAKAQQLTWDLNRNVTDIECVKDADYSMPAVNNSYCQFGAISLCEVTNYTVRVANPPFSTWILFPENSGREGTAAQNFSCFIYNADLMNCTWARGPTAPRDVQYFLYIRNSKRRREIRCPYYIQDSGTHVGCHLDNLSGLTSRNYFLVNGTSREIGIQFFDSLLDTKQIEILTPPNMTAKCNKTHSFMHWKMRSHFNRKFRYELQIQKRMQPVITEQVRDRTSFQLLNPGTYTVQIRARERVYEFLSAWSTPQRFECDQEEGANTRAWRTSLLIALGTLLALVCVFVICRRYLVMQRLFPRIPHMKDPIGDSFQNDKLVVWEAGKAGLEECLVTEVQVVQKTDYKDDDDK
Description: flow cytometry, labelled antibody at 1 µg/ml, HEK293T cells expressing the construct. The method, then: (§1) HEK293T cell (ATCC CRL 1268) was used for the preparation of the IL-3Rα/GM-CSFRα chimeric protein expression cell. Using 293Fectin (Invitrogen), the plasmid DNA obtained in the above was introduced as an expression vector into the HEK293T. The HEK293T to which the expression vector was introduced was cultured using a shaker under conditions of 5% CO₂ and 37° C. after 2 days of the introduction, the […] was used for in the flow cytometry analysis.
(§2) From 100,000 to 1,000,000 cells of the chimeric protein expression cell were allowed to react for 30 minutes on ice with at a concentration of 1 μg/ml with an AlexaFlour488-labeled human antibody or a commercially available FITC-labeled anti-IL-3Rα mouse antibody (7G3 or 9F5: both from BD Biosciences, 6H6: Acris Antibodies, AC145: Milteny Biotech, 107D2.08: Dendritics). A staining medium (Dulbecco's PBS supplemented with 2% fetal bovine serum, 2 mM EDTA and 0.05% NaN₃) was used for the dilution of antibodies and cells. Next, the cells reacted with antibodies were washed three times with the staining medium and whether the labeled antibody bound to the cell was confirmed by flow cytometry.

Test [3] addresses T3, IL-3Rα/GM-CSFRα chimeric protein, region 6 (182-ILVRGRS-188) of IL-3Rα replaced by GM-CSFRα sequence, on … (human, UniProt P26951 19-378).
T3 construct: also called Region 6 (B)
T3 chain: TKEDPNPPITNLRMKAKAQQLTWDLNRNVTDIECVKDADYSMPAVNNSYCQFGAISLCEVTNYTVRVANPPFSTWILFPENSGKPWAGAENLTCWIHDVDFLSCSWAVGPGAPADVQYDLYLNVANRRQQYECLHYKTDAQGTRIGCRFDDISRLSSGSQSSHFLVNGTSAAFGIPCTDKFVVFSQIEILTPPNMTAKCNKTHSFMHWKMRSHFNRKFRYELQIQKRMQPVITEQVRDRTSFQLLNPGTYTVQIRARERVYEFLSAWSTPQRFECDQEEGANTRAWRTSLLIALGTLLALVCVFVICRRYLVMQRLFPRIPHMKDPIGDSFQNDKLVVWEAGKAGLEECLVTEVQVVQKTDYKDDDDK
Described as above.

Test [4] concerns the target T4, IL-3Rα/GM-CSFRα chimeric protein, region 7 (192-GIPCTDK-198) of IL-3Rα replaced by GM-CSFRα sequence, on … (human, UniProt P26951 19-378).
T4 construct: also called Region 7 (B)
T4 chain: T3 chain with F164I, N167R, T169R, P176Q, C177F, T178F, K180S
Described as above.

The target in test [5] is T5, IL-3Rα/GM-CSFRα chimeric protein, C domain of IL-3Rα replaced by that of GM-CSFRα, on HEK293T cells (human, UniProt P15509 214-327).
T5 construct: domain: C domain; KpnI sites at both junctions each encode an extra Gly-Thr; also called C domain substitution
T5 sequence: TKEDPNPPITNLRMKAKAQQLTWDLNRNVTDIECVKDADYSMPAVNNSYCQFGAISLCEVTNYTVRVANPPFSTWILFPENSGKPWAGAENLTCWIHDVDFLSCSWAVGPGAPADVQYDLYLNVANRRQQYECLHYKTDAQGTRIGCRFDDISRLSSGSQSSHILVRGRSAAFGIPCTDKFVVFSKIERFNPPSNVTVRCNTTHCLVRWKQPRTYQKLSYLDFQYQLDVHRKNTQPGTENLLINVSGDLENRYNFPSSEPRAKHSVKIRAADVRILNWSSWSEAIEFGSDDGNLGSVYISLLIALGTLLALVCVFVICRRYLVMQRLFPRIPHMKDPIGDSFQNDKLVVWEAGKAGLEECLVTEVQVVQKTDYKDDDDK
Described as above. The method, then:
as §1, §2

B1: Old17 anti-human IL-3Rα human antibody (antibody, human IgG1, V domains shown)
VH: QVQLVQSGAEVKKPGSSVKVSCKTSGGTFSNFAISWVRQAPGQGLEWMGGIIPIFGSTNYAQKFQGRVTINADESTSTAYMELSSLRSEDTAVYYCAGGDKYGPYYFHYWGQGTLVTVSS
VL: DIQMTQSPSSLSASVGDRVTITCRASQGISSWLAWYQQKPEKAPKSLIYAASSLQSGVPSRFSGSGSGTDFTLTISSLQPEDFATYYCQQYNSYPYTFGQGTKLEIK
notes: Human antibody; recombinant form in N5KG1-Val Lark vector (human IgG1, kappa)
Molecule B1 had a Kd in test [1] of 1.43 nM.

B2: New102 anti-human IL-3Rα human antibody (antibody, human IgG1, V domains shown)
VH: QVQLVQSGAEVKKPGSSVKVSCMASGGTVSSYAISWVRQAPGQGLEWMGEIIPIFGIVNYAQKFQGRVTITADESTNTAYMELSSLRSEDTAIYYCARETAVAGILGYWGQGTLVTVSS
VL: B1 VL
notes: as for B1
For the molecule B2, the binding result in test [2], in test [3] and in test [4] was “no binding (tested: 1 µg/ml)” in each case. Further, binding in test [1] was characterised by a dissociation constant (Kd) of 0.798 nM.

B3: Old6 anti-human IL-3Rα human antibody (antibody, human IgG1, V domains shown)
VH: EVQLVESGGGLVKPGGSLRLSCAASGFTFSSHNMNWVRQAPGKGLEWVSSISSSSSYIYYADSVKGRFTISRDNAKNSLYLQMNSLRAEDTAVYYCAREDWGYFDYWGQGTLVTVSS
VL: AIQLTQSPSSLSASVGDRVTITCRASQGISSDLAWYQQKPGKAPKLLIYDASSLESGVPSRFSGSGSGTDFTLTISSLQPEDFATYYCQQFNSYPFTFGPGTKVDIK
notes: Human antibody
On to B3, for which the binding result in test [5] and in test [2] was “no binding (tested: 1 µg/ml)” throughout. For the same molecule, the Kd in test [1] worked out at 1.26 nM.

B4: Old4 anti-human IL-3Rα human antibody (antibody, human IgG1, V domains shown)
VH: QVQLLQSGAEVKKPGSSVKVSCKASGGTFSTYAISWVRQAPGQGLEWMGGIIPIFGIVNYAQKFQGRVTITADESTSTAYMELSSLRSEDTAVYYCARGGGSGPDVLDIWGQGTMVTVSS
VL: VIWMTQSPSLLSASTGDRVTISCRMSQGIRSYLAWYQQKPGKAPELLIYAASTLQSGVPSRFSGSGSGTDFTLTISSLQSEDFATYYCQQYYSFPYTFGQGTKLEIK
notes: Human antibody from KM mouse hybridoma; recombinant form made in N5KG1-Val Lark vector (human IgG1, kappa) in HEK293F
In the case of B4, the binding result in test [2] was “no binding (tested: 1 µg/ml)”.

B5: Old5 anti-human IL-3Rα human antibody (antibody, human IgG1, V domains shown)
VH: B4 VH with L5V, I51L, G56D, V58E, A79V, V93M
VL: B4 VL
notes: as for B1
Take B5: the binding result in test [2] is listed as “no binding (tested: 1 µg/ml)”.

B6: chimeric 7G3 antibody (mouse 7G3 variable regions, human IgG1 constant region) (antibody, V domains shown)
VH: EVQLQQSGPELVKPGASVKMSCKASGYTFTDYYMKWVKQSHGKSLEWIGDIIPSNGATFYNQKFKGKATLTVDRSSSTAYMHLNSLTSEDSAVYYCTRSHLLRASWFAYWGQGTLVTVSA
VL: DFVMTQSPSSLTVTAGEKVTMSCKSSQSLLNSGNQKNYLTWYLQKPGQPPKLLIYWASTRESGVPDRFTGSGSGTDFTLTISSVQAEDLAVYYCQNDYSYPYTFGGGTKLEIK
notes: also called 7G3 (Chimeric antibody)
B6: in test [1], the equilibrium dissociation constant (Kd) was found to be 1.88 nM.
